# Residue numbers refer to the chain shown, from its start. Numbers in names are those of the source.
# B1: equine IgG1 Q311C (antibody, part only; not given: variable domains, not shown: another chain or arm of the molecule)
# constant: ASTTAPKVFALAPGCGTTSDSTVALGCLVSGYFPEPVKVSWNSGSLTSGVHTFPSVLQSSGFYSLSSMVTVPASTWTSETYICNVVHAASNFKVDKRIEPIPDNHQKVCDMSKCPKCPAPELLGGPSVFIFPPNPKDTLMITRTPEVTCVVVDVSQENPDVKFNWYMDGVEVRTATTRPKEEQFNSTYRVVSVLRIQHCDWLSGKEFKCKVNNQALPQPIERTITKTKGRSQEPQVYVLAPHPDELSKSKVSVTCLVKDFYPPEINIEWQSNGQPELETKYSTTQAQQDSDGSYFLYSKLSVDRNRWQQGTTFTCGVMHEALHNHYTQKNVSKNPGK
# B2: equine IgG1 G426A (antibody, part only; not given: variable domains, not shown: another chain or arm of the molecule)
# constant: B1 constant with C199Q, G316A
# B3: equine IgG1 G426L (antibody, part only; not given: variable domains, not shown: another chain or arm of the molecule)
# constant: B1 constant with C199Q, G316L
# B4: equine IgG1 D312G (antibody, part only; not given: variable domains, not shown: another chain or arm of the molecule)
# constant: B1 constant with C199Q, D200G
# B5: equine IgG1 D312K (antibody, part only; not given: variable domains, not shown: another chain or arm of the molecule)
# constant: B1 constant with C199Q, D200K
# B6: equine IgG1 D312E (antibody, part only; not given: variable domains, not shown: another chain or arm of the molecule)
# constant: B1 constant with C199Q, D200E
# B7: equine IgG1 D312H (antibody, part only; not given: variable domains, not shown: another chain or arm of the molecule)
# constant: B1 constant with C199Q, D200H
# B8: equine IgG1 Q311S (antibody, part only; not given: variable domains, not shown: another chain or arm of the molecule)
# constant: B1 constant with C199S
# B9: equine IgG1 Q311D (antibody, part only; not given: variable domains, not shown: another chain or arm of the molecule)
# constant: B1 constant with C199D
# B10: equine IgG1 Q311T (antibody, part only; not given: variable domains, not shown: another chain or arm of the molecule)
# constant: B1 constant with C199T
# B11: equine IgG1 G426S (antibody, part only; not given: variable domains, not shown: another chain or arm of the molecule)
# constant: B1 constant with C199Q, G316S
# B12: equine IgG1 M252Y (antibody, part only; not given: variable domains, not shown: another chain or arm of the molecule)
# constant: B1 constant with M140Y, C199Q
# B13: equine IgG1 Q311K (antibody, part only; not given: variable domains, not shown: another chain or arm of the molecule)
# constant: B1 constant with C199K
# B14: equine IgG1 D312Q (antibody, part only; not given: variable domains, not shown: another chain or arm of the molecule)
# constant: B1 constant with C199Q, D200Q
# B15: equine IgG1 D312T (antibody, part only; not given: Variable domains, not shown: another chain or arm of the molecule)
# constant: B1 constant with C199Q, D200T
# B16: equine IgG1 Q311W (antibody, part only; not given: variable domains, not shown: another chain or arm of the molecule)
# constant: B1 constant with C199W
# B17: equine IgG1 Q311N (antibody, part only; not given: Variable domains, not shown: another chain or arm of the molecule)
# constant: B1 constant with C199N
# B18: equine IgG1 G426P (antibody, part only; not given: variable domains, not shown: another chain or arm of the molecule)
# constant: B1 constant with C199Q, G316P
# B19: equine IgG1 Q311F (antibody, part only; not given: variable domains, not shown: another chain or arm of the molecule)
# constant: B1 constant with C199F
# B20: equine IgG1 Q311H (antibody, part only; not given: variable domains, not shown: another chain or arm of the molecule)
# constant: B1 constant with C199H
# B21: equine IgG1 Q311L (antibody, part only; not given: Variable domains, not shown: another chain or arm of the molecule)
# constant: B1 constant with C199L
# B22: equine IgG1 Q311Y (antibody, part only; not given: Variable domains, not shown: another chain or arm of the molecule)
# constant: B1 constant with C199Y
# B23: equine IgG1 Q311I (antibody, part only; not given: variable domains, not shown: another chain or arm of the molecule)
# constant: B1 constant with C199I
# B24: equine IgG1 D312C (antibody, part only; not given: variable domains, not shown: another chain or arm of the molecule)
# constant: B1 constant with C199Q, D200C
# B25: equine IgG1 D312Y (antibody, part only; not given: variable domains, not shown: another chain or arm of the molecule)
# constant: B1 constant with C199Q, D200Y
# B26: equine IgG1 Q311E (antibody, part only; not given: variable domains, not shown: another chain or arm of the molecule)
# constant: B1 constant with C199E
# B27: equine IgG1 D312L (antibody, part only; not given: variable domains, not shown: another chain or arm of the molecule)
# constant: B1 constant with C199Q, D200L
# B28: equine IgG1 G426D (antibody, part only; not given: variable domains, not shown: another chain or arm of the molecule)
# constant: B1 constant with C199Q, G316D
# B29: equine IgG1 M252K (antibody, part only; not given: variable domains, not shown: another chain or arm of the molecule)
# constant: B1 constant with M140K, C199Q
# B30: equine IgG1 G426Q (antibody, part only; not given: variable domains, not shown: another chain or arm of the molecule)
# constant: B1 constant with C199Q, G316Q
# B31: equine IgG1 D312W (antibody, part only; not given: variable domains, not shown: another chain or arm of the molecule)
# constant: B1 constant with C199Q, D200W
# B32: equine IgG1 D312M (antibody, part only; not given: Variable domains, not shown: another chain or arm of the molecule)
# constant: B1 constant with C199Q, D200M
# B33: equine IgG1 D312S (antibody, part only; not given: variable domains, not shown: another chain or arm of the molecule)
# constant: B1 constant with C199Q, D200S
# B34: equine IgG1 G426T (antibody, part only; not given: variable domains, not shown: another chain or arm of the molecule)
# constant: B1 constant with C199Q, G316T
# B35: equine IgG1 M252W (antibody, part only; not given: variable domains, not shown: another chain or arm of the molecule)
# constant: B1 constant with M140W, C199Q
# B36: equine IgG1 D312P (antibody, part only; not given: variable domains, not shown: another chain or arm of the molecule)
# constant: B1 constant with C199Q, D200P
# B37: equine IgG1 D312A (antibody, part only; not given: variable domains, not shown: another chain or arm of the molecule)
# constant: B1 constant with C199Q, D200A
# B38: equine IgG1 G426C (antibody, part only; not given: variable domains, not shown: another chain or arm of the molecule)
# constant: B1 constant with C199Q, G316C
# B39: equine IgG1 G426F (antibody, part only; not given: variable domains, not shown: another chain or arm of the molecule)
# constant: B1 constant with C199Q, G316F
# B40: equine IgG1 M252F (antibody, part only; not given: variable domains, not shown: another chain or arm of the molecule)
# constant: B1 constant with M140F, C199Q
# B41: equine IgG1 G426N (antibody, part only; not given: variable domains, not shown: another chain or arm of the molecule)
# constant: B1 constant with C199Q, G316N
# B42: equine IgG1 G426I (antibody, part only; not given: variable domains, not shown: another chain or arm of the molecule)
# constant: B1 constant with C199Q, G316I
# B43: equine IgG1 M252L (antibody, part only; not given: variable domains, not shown: another chain or arm of the molecule)
# constant: B1 constant with M140L, C199Q
# B44: equine IgG1 Q311R (antibody, part only; not given: variable domains, not shown: another chain or arm of the molecule)
# constant: B1 constant with C199R
# B45: equine IgG1 Q311M (antibody, part only; not given: variable domains, not shown: another chain or arm of the molecule)
# constant: B1 constant with C199M
# B46: equine IgG1 G426M (antibody, part only; not given: variable domains, not shown: another chain or arm of the molecule)
# constant: B1 constant with C199Q, G316M
# B47: equine IgG1 G426R (antibody, part only; not given: variable domains, not shown: another chain or arm of the molecule)
# constant: B1 constant with C199Q, G316R
# B48: equine IgG1 D312F (antibody, part only; not given: Variable domains, not shown: another chain or arm of the molecule)
# constant: B1 constant with C199Q, D200F
# B49: equine IgG1 G426K (antibody, part only; not given: Variable domains, not shown: another chain or arm of the molecule)
# constant: B1 constant with C199Q, G316K
# B50: equine IgG1 Q311G (antibody, part only; not given: variable domains, not shown: another chain or arm of the molecule)
# constant: B1 constant with C199G
# B51: equine IgG1 G426E (antibody, part only; not given: Variable domains, not shown: another chain or arm of the molecule)
# constant: B1 constant with C199Q, G316E
# B52: equine IgG1 G426H (antibody, part only; not given: variable domains, not shown: another chain or arm of the molecule)
# constant: B1 constant with C199Q, G316H
# B53: equine IgG1 Q311V (antibody, part only; not given: variable domains, not shown: another chain or arm of the molecule)
# constant: B1 constant with C199V
# B54: equine IgG1 D312V (antibody, part only; not given: Variable domains, not shown: another chain or arm of the molecule)
# constant: B1 constant with C199Q, D200V
# B55: equine IgG1 D312N (antibody, part only; not given: variable domains, not shown: another chain or arm of the molecule)
# constant: B1 constant with C199Q, D200N
# B56: equine IgG4 T286V (antibody, part only; not given: variable domains, not shown: another chain or arm of the molecule)
# constant: ASTTAPKVFPLASHSAATSGSTVALGCLVSSYFPEPVTVSWNSGALTSGVHTFPSVLQSSGLYSLSSMVTVPASSLKSQTYICNVAHPASSTKVDKKIVIKECNGGCPAECLQVGPSVFIFPPKPKDVLMISRTPTVTCVVVDVGHDFPDVQFNWYVDGVETHVATTEPKQEQFNSTYRVVSVLPIQHKDWLSGKEFKCKVNNKALPAPVERTISKPTGQPREPQVYVLAPHRDELSKNKVSVTCLVKDFYPTDIDIEWKSNGQPEPETKYSTTPAQLDSDGSYFLYSKLTVETNRWQQGTTFTCAVMHEALHNHYTEKSVSKSPGK
# B57: equine IgG4 T286W (antibody, part only; not given: Variable domains, not shown: another chain or arm of the molecule)
# constant: B56 constant with V164W
# B58: equine IgG4 T286Y (antibody, part only; not given: variable domains, not shown: another chain or arm of the molecule)
# constant: B56 constant with V164Y
# Target: equine FcRn (large alpha subunit p51) / equine beta-2-microglobulin complex, biotinylated (equine) (UniProt P30441)
# Experiment: SPR (Biacore), pH 6
# UniProt P30441, sequence (P30441 21-118, one chain of several): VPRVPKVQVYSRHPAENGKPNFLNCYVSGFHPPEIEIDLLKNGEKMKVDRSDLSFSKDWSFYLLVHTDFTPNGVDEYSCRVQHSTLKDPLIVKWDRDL
row,Binder,Kd [nM]
1,B1,15.7
2,B2,17.6
3,B3,9.61
4,B4,16.2
5,B5,15.8
6,B6,25.2
7,B7,17.1
8,B8,24.4
9,B9,54.6
10,B10,17.4
11,B11,8.97
12,B12,19.3
13,B13,14.7
14,B14,46
15,B15,20.3
16,B16,21.2
17,B17,24.3
18,B18,23.9
19,B19,20.3
20,B20,24.3

row,Binder,Kd [nM]
1,B21,16.1
2,B22,21.2
3,B23,12.6
4,B24,21
5,B25,17.1
6,B26,67.3
7,B27,24.6
8,B28,25.3
9,B29,36.7
10,B30,9.01
11,B31,21.6
12,B32,23.4
13,B33,16.7
14,B34,9.73
15,B35,26.6
16,B36,8.88
17,B37,9.86
18,B38,20.4
19,B39,13.1
20,B40,47.5

row,Binder,Kd [nM]
1,B41,10.3
2,B42,9.47
3,B43,101
4,B44,10.1
5,B45,12
6,B46,9.09
7,B47,10.3
8,B48,17.8
9,B49,9.3
10,B50,20.1
11,B51,24.1
12,B52,12.8
13,B53,16.3
14,B54,8.32
15,B55,22.3
16,B56,15.3
17,B57,45
18,B58,26.9

# Source: patent US20260070987A1
